The record followed here is patent US20220064300A1.

In assay [1] the target is Murine FcγRIIB extracellular domain (mouse) (UniProt P08101). Put plainly: SPR, dissociation constant from binding at equilibrium on immobilized murine FcγRIIB extracellular domain, 37 °C.
For assay [2] the target is unchanged. The assay can be described thus: SPR, binding at equilibrium, antibody injected at 37 °C over murine FcγRIIB extracellular domain amine-coupled to a CM5 chip, reference channel mouse CD200.

Chain of UniProt P08101 (P08101 30-210): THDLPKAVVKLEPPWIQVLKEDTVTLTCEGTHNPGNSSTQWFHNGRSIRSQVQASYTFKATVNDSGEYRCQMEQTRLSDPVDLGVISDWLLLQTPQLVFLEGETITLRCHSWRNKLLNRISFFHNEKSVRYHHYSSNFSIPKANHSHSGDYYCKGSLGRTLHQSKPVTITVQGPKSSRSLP

Consider “JJ316+50 (JJ316 extended in the hinge with a 50 amino acid insertion from murine CD43) (antibody)”, for which the Kd in assay [1] and in assay [2] was 1.07 µM in each case.
Consider “JJ316 (anti-rat CD28 antibody, superagonistic; BD Biosciences cat #554992)”, for which the dissociation constant (Kd) in assay [1] and in assay [2] was 3.02 µM in each case.
In the case of “chimeric Nivolumab in an extended form containing the 50-residue extension (antibody)”, the Kd in assay [1] and in assay [2] was 8.51 µM in each case.
